# Results: the supplement of paper PMC11316812
# ± gives the standard deviation of the averaged measurements.
# Tests used:
# [1] = test system: hTERT-HMEC; experiment: percentage of EdU-negative (G0-arrested) nuclei per well, 72 h; higher = more G0 arrest; conditions: reference: sequence is the full UniProt precursor, the tested protein was the secreted form or ectodomain
# [2] = test system: MCF7; experiment: as above; conditions: reference: sequence is the full UniProt precursor, the tested protein was the secreted form or ectodomain
# [3] = protein concentration 0.0225 µM
# [4] = protein concentration 0.0357143 µM
# [5] = protein concentration 0.357143 µM
# [6] = protein concentration 0.03125 µM
# [7] = protein concentration 0.3125 µM
# [8] = protein concentration 0.010165 µM
# [9] = protein concentration 0.10165 µM
# [10] = protein concentration 0.0295 µM
# 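Also: secreted proteins added to cultured cells, EdU pulse at the end, nuclei found by Hoechst imaging, EdU status from nuclear versus surrounding ring intensity ratio, PBS as neutral control.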
sequence,measurement,setting,value
MLCLGWIFLWLVAGERIKGFNISGCSTKKLLWTYSTRSEEEFVLFCDLPEPQKSHFCHRNRLSPKQVPEHLPFMGSNDLSDVQWYQQPSNGDPLEDIRKSYPHIIQDKCTLHFLTPGVNNSGSYICRPKMIKSPYDVACCVKMILEVKPQTNASCEYSASHKQDLLLGSTGSISCPSLSCQSDAQSPAVTWYKNGKLLSVERSNRIVVDEVYDYHQGTYVCDYTQSDTVSSWTVRAVVQVRTIVGDTKLKPDILDPVEDTLEVELGKPLTISCKARFGFERVFNPVIKWYIKDSDLEWEVSVPEAKSIKSTLKDEIIERNIILEKVTQRDLRRKFVCFVQNSIGNTTQSVQLKEKRGVVLLYILLGTIGTLVAVLAASALLYRHWIEIVLLYRTYQSKDQTLGDKKDFDAFVSYAKWSSFPSEATSSLSEEHLALSLFPDVLENKYGYSLCLLERDVAPGGVYAEDIVSIIKRSRRGIFILSPNYVNGPSIFELQAAVNLALDDQTLKLILIKFCYFQEPESLPHLVKKALRVLPTVTWRGLKSVPPNSRFWAKMRYHMPVKNSQGFTWNQLRITSRIFQWKGLSRTETTGRSSQPKEW,percentage of EdU-negative,[1]; [3],5.27 ± 0.17%
same,percentage of EdU-negative,[1]; protein concentration 0.225 µM,4.77 ± 0.22%
same,percentage of EdU-negative,[2]; [3],26.2 ± 0.97%
same,percentage of EdU-negative,[2]; protein concentration 0.225 µM,24.78 ± 0.22%
MLCLLLTLGVALVCGVPAMDIPQTKQDLELPKLAGTWHSMAMATNNISLMATLKAPLRVHITSLLPTPEDNLEIVLHRWENNSCVEKKVLGEKTENPKKFKINYTVANEATLLDTDYDNFLFLCLQDTTTPIQSMMCQYLARVLVEDDEIMQGFIRAFRPLPRHLWYLLDLKQMEEPCRF,percentage of EdU-negative,[1]; [4],5.01 ± 0.051%
same,percentage of EdU-negative,[1]; [5],5.65 ± 0.33%
same,percentage of EdU-negative,[2]; [4],24.5 ± 2.6%
same,percentage of EdU-negative,[2]; [5],23 ± 1.3%
MLDWRLASAHFILAVTLTLWSSGKVLSVDVTTTEAFDSGVIDVQSTPTVREEKSATDLTAKLLLLDELVSLENDVIETKKKRSFSGFGSPLDRLSAGSVDHKGKQRKVVDHPKRRFGIPMDRIGRNRLSNSRG,percentage of EdU-negative,[1]; [3],5.01 ± 0.71%
same,percentage of EdU-negative,[1]; protein concentration 0.225 µM,5.5 ± 0.22%
same,percentage of EdU-negative,[2]; [3],23.9 ± 2%
same,percentage of EdU-negative,[2]; protein concentration 0.225 µM,24.2 ± 1.3%
MLFSALLLEVIWILAADGGQHWTYEGPHGQDHWPASYPECGNNAQSPIDIQTDSVTFDPDLPALQPHGYDQPGTEPLDLHNNGHTVQLSLPSTLYLGGLPRKYVAAQLHLHWGQKGSPGGSEHQINSEATFAELHIVHYDSDSYDSLSEAAERPQGLAVLGILIEVGETKNIAYEHILSHLHEVRHKDQKTSVPPFNLRELLPKQLGQYFRYNGSLTTPPCYQSVLWTVFYRRSQISMEQLEKLQGTLFSTEEEPSKLLVQNYRALQPLNQRMVFASFIQAGSSYTTGEMLSLGVGILVGCLCLLLAVYFIARKIRKKRLENRKSVVFTSAQATTEA [Q9ULX7],percentage of EdU-negative,[1]; [6],4.94 ± 0.17%
same,percentage of EdU-negative,[1]; [7],4.94 ± 0.42%
same,percentage of EdU-negative,[2]; [6],24.3 ± 0.34%
same,percentage of EdU-negative,[2]; [7],24.31 ± 0.24%
MLGARLRLWVCALCSVCSMSVLRAYPNASPLLGSSWGGLIHLYTATARNSYHLQIHKNGHVDGAPHQTIYSALMIRSEDAGFVVITGVMSRRYLCMDFRGNIFGSHYFDPENCRFQHQTLENGYDVYHSPQYHFLVSLGRAKRAFLPGMNPPPYSQFLSRRNEIPLIHFNTPIPRRHTRSAEDDSERDPLNVLKPRARMTPAPASCSQELPSAEDNSPMASDPLGVVRGGRVNTHAGGTGPEGCRPFAKFI [Q9GZV9],percentage of EdU-negative,[1]; [8],4.81 ± 0.08%
same,percentage of EdU-negative,[1]; [9],12.96 ± 0.081%
same,percentage of EdU-negative,[2]; [8],24 ± 0.7%
same,percentage of EdU-negative,[2]; [9],27.2 ± 0.45%
MLGIWTLLPLVLTSVARLSSKSVNAQVTDINSKGLELRKTVTTVETQNLEGLHHDGQFCHKPCPPGERKARDCTVNGDEPDCVPCQEGKEYTDKAHFSSKCRRCRLCDEGHGLEVEINCTRTQNTKCRCKPNFFCNSTVCEHCDPCTKCEHGIIKECTLTSNTKCKEEGSRSNLGWLCLLLLPIPLIVWVKRKEVQKTCRKHRKENQGSHESPTLNPETVAINLSDVDLSKYITTIAGVMTLSQVKGFVRKNGVNEAKIDEIKNDNVQDTAEQKVQLLRNWHQLHGKKEAYDTLIKDLKKANLCTLAEKIQTIILKDITSDSENSNFRNEIQSLV,percentage of EdU-negative,[1]; [4],5.07 ± 0.45%
same,percentage of EdU-negative,[1]; [5],5.88 ± 1.1%
same,percentage of EdU-negative,[2]; [4],23.4 ± 1.9%
same,percentage of EdU-negative,[2]; [5],26.6 ± 0.71%
MLGLPWKGGLSWALLLLLLGSQILLIYAWHFHEQRDCDEHNVMARYLPATVEFAVHTFNQQSKDYYAYRLGHILNSWKEQVESKTVFSMELLLGRTRCGKFEDDIDNCHFQESTELNNTFTCFFTISTRPWMTQFSLLNKTCLEGFH [Q9H4G1],percentage of EdU-negative,[1]; [10],4.64 ± 0.079%
same,percentage of EdU-negative,[1]; protein concentration 0.295 µM,4.42 ± 0.36%
same,percentage of EdU-negative,[2]; [10],27.1 ± 2.6%
same,percentage of EdU-negative,[2]; protein concentration 0.295 µM,28.28 ± 0.082%
MLGPCMLLLLLLLGLRLQLSLGIIPVEEENPDFWNREAAEALGAAKKLQPAQTAAKNLIIFLGDGMGVSTVTAARILKGQKKDKLGPEIPLAMDRFPYVALSKTYNVDKHVPDSGATATAYLCGVKGNFQTIGLSAAARFNQCNTTRGNEVISVMNRAKKAGKSVGVVTTTRVQHASPAGTYAHTVNRNWYSDADVPASARQEGCQDIATQLISNMDIDVILGGGRKYMFRMGTPDPEYPDDYSQGGTRLDGKNLVQEWLAKRQGARYVWNRTELMQASLDPSVTHLMGLFEPGDMKYEIHRDSTLDPSLMEMTEAALRLLSRNPRGFFLFVEGGRIDHGHHESRAYRALTETIMFDDAIERAGQLTSEEDTLSLVTADHSHVFSFGGYPLRGSSIFGLAPGKARDRKAYTVLLYGNGPGYVLKDGARPDVTESESGSPEYRQQSAVPLDEETHAGEDVAVFARGPQAHLVHGVQEQTFIAHVMAFAACLEPYTACDLAPPAGTTDAAHPGRSVVPALLPLLAGTLLLLETATAP,percentage of EdU-negative,[1]; [3],5.09 ± 0.15%
same,percentage of EdU-negative,[1]; protein concentration 0.225 µM,5.14 ± 0.97%
same,percentage of EdU-negative,[2]; [3],27.28 ± 0.045%
same,percentage of EdU-negative,[2]; protein concentration 0.225 µM,29.68 ± 0.2%
